Measured values reported in patent US20240182526A1 (UNIVERSITY OF SOUTHERN CALIFORNIA, published 2024).

Molecular target: T1, SRC, endogenous in mouse splenocytes (mouse, UniProt P05480 2-535)
T1 construct: Detected as pSRC (pY416-SRC antibody) in gp130 co-immunoprecipitates; also called pSRC; c-SRC
Assay: co-immunoprecipitation, F814 mouse splenocytes with or without OSM

binding result: no binding
B1: gp130 F814 variant of the CRISPR/Cas9 F814 mouse (SEQ ID NO:27 with F812 substitution) (receptor)
chain: QLLEPCGYIYPEFPVVQRGSNFTAICVLKEACLQHYYVNASYIVWKTNHAAVPREQVTVINRTTSSVTFTDVVLPSVQLTCNILSFGQIEQNVYGVTMLSGFPPDKPTNLTCIVNEGKNMLCQWDPGRETYLETNYTLKSEWATEKFPDCQSKHGTSCMVSYMPTYYVNIEVWVEAENALGKVSSESINFDPVDKVKPTPPYNLSVTNSEELSSILKLSWVSSGLGGLLDLKSDIQYRTKDASTWIQVPLEDTMSPRTSFTVQDLKPFTEYVFRIRSIKDSGKGYWSDWSEEASGTTYEDRPSRPPSFWYKTNPSHGQEYRSVRLIWKALPLSEANGKILDYEVILTQSKSVSQTYTVTGTELTVNLTNDRYVASLAARNKVGKSAAAVLTIPSPHVTAAYSVVNLKAFPKDNLLWVEWTPPPKPVSKYILEWCVLSENAPCVEDWQQEDATVNRTHLRGRLLESKCYQITVTPVFATGPGGSESLKAYLKQAAPARGPTVRTKKVGKNEAVLAWDQIPVDDQNGFIRNYSISYRTSVGKEMVVHVDSSHTEYTLSSLSSDTLYMVRMAAYTDEGGKDGPEFTFTTPKFAQGEIEAIVVPVCLAFLLTTLLGVLFCFNKRDLIKKHIWPNVPDPSKSHIAQWSPHTPPRHNFNSKDQMYSDGNFTDVSVVEIEANNKKPCPDDLKSVDLFKKEKVSTEGHSSGIGGSSCMSSSRPSISSNEENESAQSTASTVQYSTVVHSGYRHQVPSVQVFSRSESTQPLLDSEERPEDLQLVDSVDGGDEILPRQPFFKQNCSQPEACPEISHFERSNQVLSGNEEDFVRLKQQQVSDHISQPYGSEQRRLFQEGSTADALGTGADGQMERFESVGMETTIDEEIPKSYLPQTVRQGGYMPQ
notes: Endogenous protein in lysates of F814 mouse splenocytes; also called Y814 mutant; gp130 Y814-deficient
